Results reported in article PMC8476643 (Nature Communications, 2021).

B1: 7D6 monoclonal antibody (antibody, V domains shown)
VH: EVQLQQSGAELVRPGASVKLSCTASGFNIKDTYIHWVKQRPEQGLEWIGRIDPGDGDTEYDPSFQGKATITADTSSNTAYLELSSLTSEDTAVYYCTRFYDYVDYGMDYWGQGTSVTVSS
VL: DIQMTQSPASLSASVGETVTITCRASGNIHNYLAWYQQKQGKSPQLLVYNAKTLADGVPSRFSGSGSGTQYSLKINSLQPEDFGSYYCQHFWSTPPWTFGGGTKLEVK
notes: also called mAb 7D6; source: mouse hybridoma, ascites, purified (protein A agarose); copies: 2 + 2
B2: 6D6 monoclonal antibody (antibody, V domains shown)
VH: EVQLQQSGAELVKPGASVKLSCTTSGFNIIDTYMHWVKQRPEEGLEWIGGIDPVNGNSEYDPKFQDKATITADTSSNTAYLHLSRLTSEDTAVYYCASAHYYGSSSSFPYWGQGTLVTVSA
VL: DIVMTQSQKFMSTSVGDRVSVTCKASQNVGTHVAWYQQKPGQSPKALIYSASYRYSGVPDRFTGSGVGTDFTLTITNVQSEDLAEYFCQQYNSYFTFGSGTKLEIK
notes: also called mAb 6D6; source: mouse hybridoma, ascites, purified (protein A agarose); copies: 2 + 2

Tests used:
[1] = molecular target: T1, SARS-CoV-2 two-proline stabilized S trimer (S-2P) (SARS-CoV-2 Wuhan-Hu-1 (GenBank …, UniProt P0DTC2, stabilised)); experiment: SPR; conditions: both partners purified
T1 construct: also called SARS-CoV-2 S-2P

[2] = molecular target: T1, SARS-CoV-2 two-proline stabilized S …; experiment: SPR; conditions: both partners purified; remark: listed apart in the source

Binder | Kd [1] [nM] | koff [1] [s⁻¹] | kon [1] [M⁻¹ s⁻¹] | Kd [2] [nM]
B1 | 5.89 | 8.81e-05 | 15200 | 5.8
B2 | 0.03 | 4.2e-06 | 123000 | 
